Results taken from the supplement of paper PMC10065799, “High-throughput profiling of sequence recognition by tyrosine kinases and SH2 domains using bacterial peptide display” (eLife, 2023).

These sequences were tested against Hck (UniProt P08631) (assay: phosphorylation enrichment, bacterial display (enrichment ratio); higher = better substrate or ligand; peptides without Tyr show the background).
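Note: 11-residue human phosphosite peptides and single-mutation variants displayed on the E. coli surface, counted by deep sequencing, each peptide's frequency after selection divided by its frequency in the unselected input library; frequency after pTyr selection over input frequency; kinase dosed for 20-30% of maximal phosphorylation in three min.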

Sequence of Hck (P08631 whole entry, looked up): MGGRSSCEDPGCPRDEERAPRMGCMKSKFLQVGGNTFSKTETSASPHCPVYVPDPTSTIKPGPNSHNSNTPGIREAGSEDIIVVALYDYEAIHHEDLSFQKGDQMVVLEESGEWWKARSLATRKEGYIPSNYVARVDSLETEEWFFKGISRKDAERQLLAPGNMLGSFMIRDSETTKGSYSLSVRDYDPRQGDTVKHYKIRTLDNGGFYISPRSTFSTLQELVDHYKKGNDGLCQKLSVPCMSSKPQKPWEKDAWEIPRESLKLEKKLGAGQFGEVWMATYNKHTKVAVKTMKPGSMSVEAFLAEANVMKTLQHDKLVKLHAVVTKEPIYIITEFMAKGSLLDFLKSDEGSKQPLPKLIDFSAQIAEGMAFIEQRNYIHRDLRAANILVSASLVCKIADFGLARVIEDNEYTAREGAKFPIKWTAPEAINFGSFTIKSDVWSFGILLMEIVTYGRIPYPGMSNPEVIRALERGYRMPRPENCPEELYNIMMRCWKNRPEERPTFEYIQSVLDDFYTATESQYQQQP

Going from GAVGNYSGGLA [MGMT_Y158] to NHFKIYNLFAE [PTEN_Y68_C71Y_YF], the phosphorylation enrichment rises from 0.408 to 1.53.

What follows are sequences tested against Fes (UniProt P07332) in the same assay as above.
Sequence of Fes (P07332 whole entry, looked up): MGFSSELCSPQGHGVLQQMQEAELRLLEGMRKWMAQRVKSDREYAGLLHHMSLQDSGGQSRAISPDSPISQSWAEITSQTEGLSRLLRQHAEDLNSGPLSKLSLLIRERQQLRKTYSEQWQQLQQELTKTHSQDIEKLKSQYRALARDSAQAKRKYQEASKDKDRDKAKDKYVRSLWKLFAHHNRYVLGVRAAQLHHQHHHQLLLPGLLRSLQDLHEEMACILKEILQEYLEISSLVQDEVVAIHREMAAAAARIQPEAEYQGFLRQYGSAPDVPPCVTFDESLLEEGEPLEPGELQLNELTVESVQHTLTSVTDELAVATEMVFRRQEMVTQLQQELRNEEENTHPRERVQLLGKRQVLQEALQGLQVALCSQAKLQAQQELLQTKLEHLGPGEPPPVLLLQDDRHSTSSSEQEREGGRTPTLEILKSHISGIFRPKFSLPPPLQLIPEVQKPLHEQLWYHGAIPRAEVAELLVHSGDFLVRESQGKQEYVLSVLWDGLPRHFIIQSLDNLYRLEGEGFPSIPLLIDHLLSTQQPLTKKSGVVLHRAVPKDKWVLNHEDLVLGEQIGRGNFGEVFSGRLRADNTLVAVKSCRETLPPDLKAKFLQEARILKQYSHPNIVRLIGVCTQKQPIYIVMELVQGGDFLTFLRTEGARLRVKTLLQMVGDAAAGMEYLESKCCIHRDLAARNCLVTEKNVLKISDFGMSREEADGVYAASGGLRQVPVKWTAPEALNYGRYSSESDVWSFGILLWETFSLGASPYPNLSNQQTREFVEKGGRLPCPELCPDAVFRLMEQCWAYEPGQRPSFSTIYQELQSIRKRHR

Compared with AFAEVYEGQVS [ALK_Y1131_G1128A], ERSMSYCDESR [SMG1_Y143_S144C] is lower in phosphorylation enrichment: 0.974 for the first, 0.77 for the second.

First: RGNMYYENSYA [EGFR_Y113]
Second: SISLKYEGRVY [ABL1_Y167_R166K]
The phosphorylation enrichment of the first is lower: 1.2 for the first, 1.38 for the second.

Compared with ATQDNYVLEVR [PTPRZ1_Y2179_D2178N], NDHHFYLEGTL [ALDOB_Y223_V222F] is higher in phosphorylation enrichment: 1.08 for the first, 1.19 for the second.

Going from RGRKVYLEDGF [PRIM2_Y201] to KSMFVYCTPNK [ATP2A2_Y497_S495F], the phosphorylation enrichment rises from 0.911 to 1.19.

Going from KSLFHYRQFSA [CPS1_Y1491_YF] to WRPFGYPRRRR [BCS1L_Y181], the phosphorylation enrichment falls from 0.859 to 0.513.

Going from EVDETYVPKEF [ALB_Y521] to DSGRDYVSQFE [APOA1_Y53], the phosphorylation enrichment falls from 1.58 to 0.922.

Compared with YRASYYRKGGC [ALK_Y1283], VGQRPYRPLPE [REEP3_Y170_Q171R] is lower in phosphorylation enrichment: 0.677 for the first, 0.637 for the second.

Compared with PHMQTYEVDPN [SDHB_Y61_L65P], LGPDGYSTVDR [ARVCF_Y901] is lower in phosphorylation enrichment: 1.49 for the first, 1.31 for the second.

Going from CKLCQYFLDHL [ATRX_Y1849_Y1847C_YF] to FTAVGYHKHFT [NOMO1_Y1137_I1141F], the phosphorylation enrichment falls from 1.18 to 0.935.

Going from EFQLPYFNMVP [BMPR1A_Y457_YF] to SLIEHYEPSET [PLCD1_Y258_R257H], the phosphorylation enrichment falls from 1.01 to 0.977.

Going from GHNNVYISEHV [GRIN2A_Y1423_D1421N] to NYSKMYCNPDA [KNL1_Y489_A486S], the phosphorylation enrichment rises from 0.6 to 0.914.

Compared with VQQVIYATRAL [MYH7_Y422_G425R], GCRSKYVRLWG [KCNQ1_Y184_G186R] is higher in phosphorylation enrichment: 0.684 for the first, 0.696 for the second.

Going from RNGDRYFKEIV [DCX_Y64_G67E] to FKNGDYNEVMK [LCT_Y1638], the phosphorylation enrichment rises from 0.705 to 0.903.

First: SPDMLYQFLKQ [RPAP3_Y567_YF]
Second: MSRNLYSGDCY [DDR2_Y736_Y740C]
The phosphorylation enrichment of the first is lower: 0.971 for the first, 0.993 for the second.

Going from KVKVEYDMTVP [AHNAK_Y964_G962V] to GAEIVYKSPVV [MAPT_Y711], the phosphorylation enrichment falls from 1.03 to 0.904.

Compared with PADSGYPAFLG [ATP6V1A_Y374_YF], GAVGNYSGGLA [MGMT_Y158] is lower in phosphorylation enrichment: 1.88 for the first, 0.765 for the second.

Work on NHFKIYNLFAE [PTEN_Y68_C71Y_YF] yielded a phosphorylation enrichment of 1.33.

These sequences were tested against FGFR3 (UniProt P22607) in the same assay as above.
Sequence of FGFR3 (P22607 whole entry, looked up): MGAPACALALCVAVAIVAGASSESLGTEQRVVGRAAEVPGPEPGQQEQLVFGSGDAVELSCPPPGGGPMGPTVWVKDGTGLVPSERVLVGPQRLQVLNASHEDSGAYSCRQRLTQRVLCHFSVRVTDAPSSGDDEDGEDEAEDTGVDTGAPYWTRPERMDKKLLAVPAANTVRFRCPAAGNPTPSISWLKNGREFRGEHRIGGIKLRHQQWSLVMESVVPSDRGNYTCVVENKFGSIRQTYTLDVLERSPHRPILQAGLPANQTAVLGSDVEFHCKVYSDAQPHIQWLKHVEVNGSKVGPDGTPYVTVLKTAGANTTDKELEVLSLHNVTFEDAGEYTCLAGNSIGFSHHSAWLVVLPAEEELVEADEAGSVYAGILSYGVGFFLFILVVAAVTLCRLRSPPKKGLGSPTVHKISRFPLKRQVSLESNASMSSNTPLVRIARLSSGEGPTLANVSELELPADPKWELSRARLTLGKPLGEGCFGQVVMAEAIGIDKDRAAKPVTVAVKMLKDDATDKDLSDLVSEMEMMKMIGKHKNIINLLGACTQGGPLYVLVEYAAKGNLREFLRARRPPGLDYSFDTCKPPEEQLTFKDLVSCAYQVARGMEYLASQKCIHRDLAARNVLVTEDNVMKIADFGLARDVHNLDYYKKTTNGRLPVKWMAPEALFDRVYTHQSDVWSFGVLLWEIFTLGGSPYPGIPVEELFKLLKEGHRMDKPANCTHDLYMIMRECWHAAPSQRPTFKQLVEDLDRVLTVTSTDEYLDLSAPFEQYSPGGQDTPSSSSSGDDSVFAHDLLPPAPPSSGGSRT

First: AFAEVYEGQVS [ALK_Y1131_G1128A]
Second: ERSMSYCDESR [SMG1_Y143_S144C]
The phosphorylation enrichment of the first is higher: 0.695 for the first, 0.551 for the second.

Going from RGNMYYENSYA [EGFR_Y113] to SISLKYEGRVY [ABL1_Y167_R166K], the phosphorylation enrichment falls from 1.02 to 0.897.

Compared with ATQDNYVLEVR [PTPRZ1_Y2179_D2178N], NDHHFYLEGTL [ALDOB_Y223_V222F] is higher in phosphorylation enrichment: 0.676 for the first, 0.696 for the second.

Going from RGRKVYLEDGF [PRIM2_Y201] to KSMFVYCTPNK [ATP2A2_Y497_S495F], the phosphorylation enrichment falls from 0.851 to 0.768.

First: KSLFHYRQFSA [CPS1_Y1491_YF]
Second: WRPFGYPRRRR [BCS1L_Y181]
The phosphorylation enrichment of the first is lower: 0.498 for the first, 0.522 for the second.

Compared with EVDETYVPKEF [ALB_Y521], DSGRDYVSQFE [APOA1_Y53] is lower in phosphorylation enrichment: 0.791 for the first, 0.673 for the second.

First: YRASYYRKGGC [ALK_Y1283]
Second: VGQRPYRPLPE [REEP3_Y170_Q171R]
The phosphorylation enrichment of the first is lower: 0.513 for the first, 0.519 for the second.

Going from PHMQTYEVDPN [SDHB_Y61_L65P] to LGPDGYSTVDR [ARVCF_Y901], the phosphorylation enrichment rises from 0.761 to 0.81.

Going from CKLCQYFLDHL [ATRX_Y1849_Y1847C_YF] to FTAVGYHKHFT [NOMO1_Y1137_I1141F], the phosphorylation enrichment falls from 0.661 to 0.589.

First: EFQLPYFNMVP [BMPR1A_Y457_YF]
Second: SLIEHYEPSET [PLCD1_Y258_R257H]
The phosphorylation enrichment of the first is higher: 3.58 for the first, 0.704 for the second.

Compared with GHNNVYISEHV [GRIN2A_Y1423_D1421N], NYSKMYCNPDA [KNL1_Y489_A486S] is higher in phosphorylation enrichment: 0.463 for the first, 0.521 for the second.

Going from VQQVIYATRAL [MYH7_Y422_G425R] to GCRSKYVRLWG [KCNQ1_Y184_G186R], the phosphorylation enrichment falls from 0.534 to 0.486.

Compared with RNGDRYFKEIV [DCX_Y64_G67E], FKNGDYNEVMK [LCT_Y1638] is lower in phosphorylation enrichment: 1.51 for the first, 0.548 for the second.

First: SPDMLYQFLKQ [RPAP3_Y567_YF]
Second: MSRNLYSGDCY [DDR2_Y736_Y740C]
The phosphorylation enrichment of the first is higher: 1.35 for the first, 1.15 for the second.

Compared with KVKVEYDMTVP [AHNAK_Y964_G962V], GAEIVYKSPVV [MAPT_Y711] is higher in phosphorylation enrichment: 0.646 for the first, 0.672 for the second.

With PADSGYPAFLG [ATP6V1A_Y374_YF] the phosphorylation enrichment was 1.36.
